Our source for the Kd values is paper PMC8386928 (Science Advances, 2021).

The experiment has as its target biotinylated PepT2 (C-terminal Avi tag) (Rattus norvegicus, UniProt Q63424, biotin (on the Avi tag, by BirA)). The experiment in a line: BLI. A general note: In BLI a coated tip is dipped into the sample, and binding shifts an interference pattern.

Sequence of biotinylated PepT2 (C-terminal Avi tag) (Q63424 whole entry): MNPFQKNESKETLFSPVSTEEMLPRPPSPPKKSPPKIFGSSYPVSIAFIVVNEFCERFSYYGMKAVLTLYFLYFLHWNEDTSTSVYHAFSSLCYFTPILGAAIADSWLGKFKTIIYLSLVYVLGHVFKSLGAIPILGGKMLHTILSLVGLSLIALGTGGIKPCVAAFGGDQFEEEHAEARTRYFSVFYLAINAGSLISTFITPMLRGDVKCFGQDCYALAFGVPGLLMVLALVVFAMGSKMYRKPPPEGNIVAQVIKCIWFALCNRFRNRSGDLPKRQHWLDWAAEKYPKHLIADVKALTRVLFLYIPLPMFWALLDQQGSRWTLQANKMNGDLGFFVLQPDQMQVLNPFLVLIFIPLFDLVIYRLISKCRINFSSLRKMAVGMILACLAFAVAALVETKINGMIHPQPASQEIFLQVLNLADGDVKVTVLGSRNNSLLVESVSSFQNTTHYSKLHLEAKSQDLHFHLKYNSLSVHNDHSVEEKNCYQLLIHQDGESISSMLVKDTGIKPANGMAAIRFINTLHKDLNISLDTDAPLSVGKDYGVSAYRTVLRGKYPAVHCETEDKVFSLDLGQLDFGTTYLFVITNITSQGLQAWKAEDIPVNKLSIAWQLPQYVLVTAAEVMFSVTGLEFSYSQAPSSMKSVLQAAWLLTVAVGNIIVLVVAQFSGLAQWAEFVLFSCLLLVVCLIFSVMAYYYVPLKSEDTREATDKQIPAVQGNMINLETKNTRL

B1: nanobody D8 (VHH)
VHH: QVQLVESGGGLVQPGGSLRLLCVASGRPFNDYDMGWFRQAPGKEREFVASISWSGRVTDYSDSMKGRCTVSRDNAKGTMFLQMSNLVPRDTAVYYCAAARRRWTFKATNTEEFYETWGQGTQVTVSS
One may read the Kd as the equilibrium constant for the complex coming apart. Read a low Kd as tighter binding. B1 displayed a Kd of approximately 25 nM.
